B1: BiP (natural protein)
chain: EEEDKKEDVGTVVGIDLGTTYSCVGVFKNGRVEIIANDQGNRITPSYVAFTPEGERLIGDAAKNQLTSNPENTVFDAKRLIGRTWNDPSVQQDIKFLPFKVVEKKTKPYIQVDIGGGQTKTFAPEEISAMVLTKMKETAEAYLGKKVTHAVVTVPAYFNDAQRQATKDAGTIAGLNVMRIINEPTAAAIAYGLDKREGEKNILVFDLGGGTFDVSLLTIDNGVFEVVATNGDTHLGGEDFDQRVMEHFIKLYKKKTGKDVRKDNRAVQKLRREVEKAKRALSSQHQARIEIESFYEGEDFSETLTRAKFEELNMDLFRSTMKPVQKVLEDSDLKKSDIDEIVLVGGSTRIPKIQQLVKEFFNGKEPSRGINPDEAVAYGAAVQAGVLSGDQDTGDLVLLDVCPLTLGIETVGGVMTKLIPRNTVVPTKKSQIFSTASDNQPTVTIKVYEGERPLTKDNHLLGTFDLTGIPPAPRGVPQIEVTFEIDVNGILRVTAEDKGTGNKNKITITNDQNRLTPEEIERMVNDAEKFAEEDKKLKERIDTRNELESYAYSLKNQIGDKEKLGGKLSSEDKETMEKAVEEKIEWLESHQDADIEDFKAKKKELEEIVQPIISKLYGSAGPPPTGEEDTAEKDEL
B2: human PERK luminal domain (residues 105–403) (domain or fragment)
chain: LVIISTLDGRIAALDPENHGKKQWDLDVGSGSLVSSSLSKPEVFGNKMIIPSLDGALFQWDQDRESMETVPFTVESLLESSYKFGDDVVLVGGKSLTTYGLSAYSGKVRYICSALGCRQWDSDEMEQEEDILLLQRTQKTVRAVGPRSGNEKWNFSVGHFELRYIPDMETRAGFIESTFKPNENTEESKIISDVEEQEAAIMDIVIKVSVADWKVMAFSKKGGHLEWEYQFCTPIASAWLLKDGKVIPISLFDDTSYTSNDDVLEDEEDIVEAARGATENSVYLGMYRGQLYLQSSVRI

How the values were obtained:
Assay in all cases: MST
[1] = biological target: PERK luminal domain A378N (human, UniProt Q9NZJ5 105-403, A378N)
[2] = biological target: PERK luminal domain L395N (human, UniProt Q9NZJ5 105-403, L395N)
BiP = biological target: B1
BiP, sequence (P11021 19-654): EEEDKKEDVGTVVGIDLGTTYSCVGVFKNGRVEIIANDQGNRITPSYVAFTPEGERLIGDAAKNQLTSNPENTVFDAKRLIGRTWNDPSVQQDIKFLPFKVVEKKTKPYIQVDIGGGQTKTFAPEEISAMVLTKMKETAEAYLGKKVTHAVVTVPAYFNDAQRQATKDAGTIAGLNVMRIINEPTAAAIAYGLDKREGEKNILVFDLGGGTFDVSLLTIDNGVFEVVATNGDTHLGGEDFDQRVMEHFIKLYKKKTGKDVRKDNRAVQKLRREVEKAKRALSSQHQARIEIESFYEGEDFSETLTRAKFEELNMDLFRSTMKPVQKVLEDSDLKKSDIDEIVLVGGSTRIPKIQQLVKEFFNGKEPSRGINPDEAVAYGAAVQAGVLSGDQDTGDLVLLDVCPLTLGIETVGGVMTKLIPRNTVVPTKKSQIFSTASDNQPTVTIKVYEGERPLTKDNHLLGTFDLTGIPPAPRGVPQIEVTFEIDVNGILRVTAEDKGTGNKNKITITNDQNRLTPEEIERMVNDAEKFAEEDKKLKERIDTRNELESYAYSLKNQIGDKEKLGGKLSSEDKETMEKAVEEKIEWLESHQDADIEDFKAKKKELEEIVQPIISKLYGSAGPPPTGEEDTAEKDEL

| Kd [1] | Kd [2] | Kd (BiP) | Binder |
| --- | --- | --- | --- |
| 2300 nM | 1800 nM | – | B1 |
| – | – | 2000 nM | B2 |

— PMC4474532 (2015)
